Source: patent US20160251438A1 (LUDWIG INSTITUTE FOR CANCER RESEARCH, published 2016)
Where a chain is given by its changes, count along the chain named.

B1: MHGARP8 (antibody, V domains shown)
VH: QVQLKESGPGLVAPSQSLSITCTVSGFSLTGYGINWVRQPPGKGLEWLGMIWSDGSTDYNSVLTSRLRISKDNSNSQVFLKMNSLQVDDTARYYCARDRNYYDYDGAMDYWGQGTSVTVSS
VL: DIQVTQSSSYLSVSLGDRVTITCKASDHIKNWLAWYQQKPGIAPRLLVSGATSLEAGVPSRFSGSGSGKNFTLSITSLQTEDVATYYCQQYWSTPWTFGGGTTLEIR
notes: biotinylated for FACS; also called MHG-8
B2: LHG-10.4-D (antibody, human IgG1, V domains shown)
VH: EVQLVQPGAELRNSGASVKVSCKASGYRFTSYYIDWVRQAPGQGLEWMGRIDPEDGGTKYAQKFQGRVTFTADTSTSTAYVELSSLRSEDTAVYYCARNEWETVVVGDLMYEYEYWGQGTQVTVSS
VL: DIQMTQSPSSLSASLGDRVTITCQASQSISSYLAWYQQKPGQAPKLLIYGTSRLKTGVPSRFSGSGSGTSFTLTISGLEAEDAGTYYCQQYYSAPVTFGQGTKVELK
B3: LHG-10-D (antibody, human IgG1, V domains shown)
VH: B2 VH
VL: B2 VL with S9T, T51A, K55Q, Y92D, A94L
B4: LHG-10.3 (antibody, human IgG1, V domains shown)
VH: B2 VH
VL: B2 VL with S30V, T51A, K55Q, Y92A, K103G
notes: VK-shuffled variant of LHG-10, human IgG1
B5: LHG-10.3-D (antibody, human IgG1, V domains shown)
VH: B2 VH
VL: B2 VL with S30V, T51A, K55Q, Y92A, K103G
B6: LHG-10.6 (antibody, human IgG1, V domains shown)
VH: B2 VH
VL: B2 VL with K45N, L46I, T51A, Y92A, A94V
notes: as for B4
B7: LHG-10.6-D (antibody, human IgG1, V domains shown)
VH: B2 VH
VL: B2 VL with K45N, L46I, T51A, Y92A, A94V
notes: also called LHG-10.6N297Q
B8: LHG-10.5-D (antibody, human IgG1, V domains shown)
VH: B2 VH
VL: DIQMTQSPSSLSPSLGDRVTITCQASQTISSFLAWYHQKPGQPPKLLIYRASIPQTGVPSRFSGSGSGTSFTLTIGGLEAEDAGTYYCQQYVSAPPTFGQGTKVELK
B9: LHG-10.4 (antibody, human IgG1, V domains shown)
VH: B2 VH
VL: B2 VL
notes: as for B4
B10: LHG-10.5 (antibody, human IgG1, V domains shown)
VH: B2 VH
VL: B8 VL
notes: as for B4

Target: T1, human TGF-β1 (latent) (human, UniProt P01137 30-390)
T1 construct: from transfected hTGFB1; also called hTGF-β1; hTGFB1
T1 sequence (P01137 30-390 limits assumed): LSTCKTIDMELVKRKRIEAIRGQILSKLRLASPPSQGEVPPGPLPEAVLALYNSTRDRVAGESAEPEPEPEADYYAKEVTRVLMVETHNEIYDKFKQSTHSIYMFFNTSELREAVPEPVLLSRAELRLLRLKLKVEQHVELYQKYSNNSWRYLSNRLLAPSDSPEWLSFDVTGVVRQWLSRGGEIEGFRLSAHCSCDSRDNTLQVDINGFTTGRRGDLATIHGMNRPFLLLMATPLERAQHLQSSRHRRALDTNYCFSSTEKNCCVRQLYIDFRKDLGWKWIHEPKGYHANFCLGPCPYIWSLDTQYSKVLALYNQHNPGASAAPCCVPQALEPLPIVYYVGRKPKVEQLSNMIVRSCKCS
Experiment: FACS, 293T + hTGFB1 only [cont.) B]
Description: No latent TGF-β is detected on their surface with an anti-LAP antibody. Transfection of GARP or TGFB1 alone induces no or low surface LAP, respectively, whereas co-transfection of GARP and TGFB1 induces high surface LAP as a result of latent TGF-β1 binding and presentation by GARP (FIG. 14, part B, left histograms).

Binder | binding result
B1 | no binding

Target: T2, recombinant soluble human GARP-TGFβ1 complex (human, UniProt Q14392 20-628; P01137 30-390)
T2 construct: co-expressed in HEK293E, purified by the Strep-Tag; TGFβ consists of LAP and mature TGFβ; also called shGARP-TGFβ; rhGARP-TGFβ
T2 sequence (Q14392 other isoform, or with tags, fused parts or gaps limits assumed, chain 1 of 2): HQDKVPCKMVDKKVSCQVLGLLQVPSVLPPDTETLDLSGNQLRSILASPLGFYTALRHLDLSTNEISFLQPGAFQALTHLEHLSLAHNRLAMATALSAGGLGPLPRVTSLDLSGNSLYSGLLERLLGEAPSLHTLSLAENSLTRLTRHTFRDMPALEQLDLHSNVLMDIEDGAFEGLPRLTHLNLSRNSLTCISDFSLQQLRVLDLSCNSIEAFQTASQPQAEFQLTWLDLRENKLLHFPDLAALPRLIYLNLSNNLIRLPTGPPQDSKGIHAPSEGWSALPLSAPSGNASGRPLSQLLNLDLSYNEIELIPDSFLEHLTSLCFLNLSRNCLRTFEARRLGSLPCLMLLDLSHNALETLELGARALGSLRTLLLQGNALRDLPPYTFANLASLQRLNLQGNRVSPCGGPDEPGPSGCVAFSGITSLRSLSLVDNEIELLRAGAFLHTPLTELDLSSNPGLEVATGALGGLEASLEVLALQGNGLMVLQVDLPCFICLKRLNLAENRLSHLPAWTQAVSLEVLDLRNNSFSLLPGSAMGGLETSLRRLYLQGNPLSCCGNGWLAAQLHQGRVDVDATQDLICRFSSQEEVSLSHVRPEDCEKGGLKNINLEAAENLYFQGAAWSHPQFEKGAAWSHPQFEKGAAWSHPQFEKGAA
T2 sequence (P01137 30-390 limits assumed, chain 2 of 2): as the sequence (P01137 30-390 limits assumed) above
Experiment: SPR (Biacore), hGARP-TGFβ1 immobilised

Binder | Kd | fold improvement of KD (reference LHG-10-D) | fold improvement of ka (reference LHG-10-D) | fold improvement of kd (reference LHG-10-D) | koff | kon | fold improvement of KD (reference LHG-10) | fold improvement of ka (reference LHG-10) | fold improvement of kd (reference LHG-10)
B2 | 0.0327 nM | 5.7 fold | 0.4 fold | 2.2 fold | 1.21e-05 s⁻¹ | 371000 M⁻¹ s⁻¹ | – | – | –
B3 | 0.185 nM | 1 fold | 1 fold | 1 fold | 2.62e-05 s⁻¹ | 142000 M⁻¹ s⁻¹ | – | – | –
B4 | 0.0222 nM | – | – | – | 6.38e-06 s⁻¹ | 287000 M⁻¹ s⁻¹ | 5.9 fold | 0.8 fold | 4.9 fold
B5 | 0.0224 nM | 8.3 fold | 0.6 fold | 5.1 fold | 5.18e-06 s⁻¹ | 231000 M⁻¹ s⁻¹ | – | – | –
B6 | 0.0159 nM | – | – | – | 4.4e-06 s⁻¹ | 276000 M⁻¹ s⁻¹ | 8.2 fold | 0.9 fold | 7.1 fold
B7 | 0.0216 nM | 8.6 fold | 0.5 fold | 4.3 fold | 6.15e-06 s⁻¹ | 284000 M⁻¹ s⁻¹ | – | – | –
B8 | 0.028 nM | 6.6 fold | 0.4 fold | 2.4 fold | 1.07e-05 s⁻¹ | 383000 M⁻¹ s⁻¹ | – | – | –
B9 | 0.0291 nM | – | – | – | 1.3e-05 s⁻¹ | 448000 M⁻¹ s⁻¹ | 4.5 fold | 0.5 fold | 2.4 fold
B10 | 0.0331 nM | – | – | – | 1.37e-05 s⁻¹ | 415000 M⁻¹ s⁻¹ | 4 fold | 0.6 fold | 2.3 fold
